Publication PMC9482650, “Quantitative fragmentomics allow affinity mapping of interactomes” (Nature Communications, 2022)
Values belong to the binder of their own block, whether it stands above or below them.

Columns and labels:
Test in all cases: holdup assay
Set-up in all cases: key: below the threshold = too weak to quantify, mostly under pKd 3.1 to 4
Conditions in all cases: plain residues with an end cap or a label only (N-terminal biotin on a linker: ttds)
SNTB1, Q13884 = biological target: T1, SNTB1, Q13884
T1 sequence (Q13884 107-205, limits assumed, looked up): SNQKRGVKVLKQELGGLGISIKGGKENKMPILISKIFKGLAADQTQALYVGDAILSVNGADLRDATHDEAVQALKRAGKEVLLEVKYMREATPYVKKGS

GRIP2_6, Q9C0E4 = biological target: GRIP2_6, Q9C0E4
GRID2IP_1, A4D2P6 = biological target: GRID2IP_1, A4D2P6
SCRIB_2, Q14160 = biological target: SCRIB_2, Q14160
LNX1_1, Q8TBB1 = biological target: LNX1_1, Q8TBB1
MAST2, Q6P0Q8 = biological target: MAST2, Q6P0Q8
MPP2, Q14168 = biological target: T2, MPP2, Q14168
T2 sequence (Q14168 180-250, limits assumed, looked up): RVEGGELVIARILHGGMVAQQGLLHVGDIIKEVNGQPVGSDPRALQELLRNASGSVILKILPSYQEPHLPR

GRIP1_7, Q9Y3R0 = biological target: T3, GRIP1_7, Q9Y3R0
T3 sequence (Q9Y3R0 999-1096, limits assumed, looked up): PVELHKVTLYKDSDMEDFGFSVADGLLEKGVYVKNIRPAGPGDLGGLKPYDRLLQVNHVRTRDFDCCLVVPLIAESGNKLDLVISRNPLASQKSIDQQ

ARHGEF12, Q9NZN5-2 = biological target: ARHGEF12, Q9NZN5-2
MAGI2_2, Q86UL8 = biological target: MAGI2_2, Q86UL8
SCRIB_3, Q14160 = biological target: SCRIB_3, Q14160
MPP6, Q9NZW5 = biological target: T4, MPP6, Q9NZW5
T4 sequence (Q9NZW5 125-219, limits assumed, looked up): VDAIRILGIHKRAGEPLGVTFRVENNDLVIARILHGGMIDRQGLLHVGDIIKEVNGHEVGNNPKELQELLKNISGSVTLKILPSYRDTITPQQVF

GIPC2, Q8TF65 = biological target: GIPC2, Q8TF65
SNTA1, Q13424 = biological target: T5, SNTA1, Q13424
T5 sequence (Q13424 82-180, limits assumed, looked up): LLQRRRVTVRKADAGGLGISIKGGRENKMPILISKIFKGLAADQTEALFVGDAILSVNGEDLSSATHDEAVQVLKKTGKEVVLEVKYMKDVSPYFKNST

GRID2IP_2, A4D2P6 = biological target: GRID2IP_2, A4D2P6
GRIP2_7, Q9C0E4 = biological target: GRIP2_7, Q9C0E4
DLG4_3, P78352 = biological target: DLG4_3, P78352
FRMPD1, Q5SYB0 = biological target: T6, FRMPD1, Q5SYB0
T6 sequence (Q5SYB0 52-145, limits assumed, looked up): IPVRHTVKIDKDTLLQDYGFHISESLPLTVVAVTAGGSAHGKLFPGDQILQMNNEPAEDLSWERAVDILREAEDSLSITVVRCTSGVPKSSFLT

HTRA3, P83110 = biological target: T7, HTRA3, P83110
T7 sequence (P83110 354-453, limits assumed, looked up): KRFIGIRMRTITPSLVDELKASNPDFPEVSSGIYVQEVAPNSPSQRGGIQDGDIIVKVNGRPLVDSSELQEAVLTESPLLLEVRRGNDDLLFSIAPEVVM

TX1BP3, O14907 = biological target: T8, TX1BP3, O14907
T8 sequence (O14907 10-122, limits assumed, looked up): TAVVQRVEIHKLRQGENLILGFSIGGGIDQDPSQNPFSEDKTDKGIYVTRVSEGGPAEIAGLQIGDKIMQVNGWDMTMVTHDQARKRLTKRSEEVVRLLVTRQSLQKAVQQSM

GRIP2_5, Q9C0E4 = biological target: GRIP2_5, Q9C0E4
TJP3_3, O95049 = biological target: T9, TJP3_3, O95049
T9 sequence (O95049 375-456, limits assumed, looked up): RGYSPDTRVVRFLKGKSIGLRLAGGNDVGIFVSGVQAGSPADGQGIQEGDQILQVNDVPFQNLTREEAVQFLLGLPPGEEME

SCRIB_1, Q14160 = biological target: SCRIB_1, Q14160
LDB3, O75112 = biological target: LDB3, O75112
DLG4_1, P78352 = biological target: DLG4_1, P78352
PDZRN3_1, Q9UPQ7 = biological target: T10, PDZRN3_1, Q9UPQ7
T10 sequence (Q9UPQ7 244-349, limits assumed, looked up): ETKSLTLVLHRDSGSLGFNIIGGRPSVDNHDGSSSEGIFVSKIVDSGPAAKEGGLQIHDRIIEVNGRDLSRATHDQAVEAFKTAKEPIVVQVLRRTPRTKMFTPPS

DFNB31_2, Q9P202 = biological target: T11, DFNB31_2, Q9P202
T11 sequence (Q9P202 274-371, limits assumed, looked up): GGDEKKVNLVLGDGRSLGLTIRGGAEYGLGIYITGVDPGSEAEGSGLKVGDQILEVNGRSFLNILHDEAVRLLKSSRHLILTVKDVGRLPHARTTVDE

Chain of GRID2IP_2, A4D2P6 (A4D2P6 272-370): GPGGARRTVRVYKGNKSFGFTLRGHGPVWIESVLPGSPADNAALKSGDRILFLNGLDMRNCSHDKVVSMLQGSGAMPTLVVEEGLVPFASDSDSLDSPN
Chain of MAGI2_2, Q86UL8 (Q86UL8 410-522): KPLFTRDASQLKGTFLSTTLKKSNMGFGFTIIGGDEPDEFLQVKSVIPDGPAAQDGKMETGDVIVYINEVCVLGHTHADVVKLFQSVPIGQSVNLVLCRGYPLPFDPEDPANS
Chain of GIPC2, Q8TF65 (Q8TF65 112-203): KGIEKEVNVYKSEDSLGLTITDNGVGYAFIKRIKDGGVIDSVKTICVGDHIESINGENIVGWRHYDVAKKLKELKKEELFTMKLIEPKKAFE
Chain of LNX1_1, Q8TBB1 (Q8TBB1 261-371): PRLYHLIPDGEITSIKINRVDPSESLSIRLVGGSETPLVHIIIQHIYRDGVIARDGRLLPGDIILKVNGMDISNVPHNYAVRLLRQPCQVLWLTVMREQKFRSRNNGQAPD
Chain of ARHGEF12, Q9NZN5-2 (Q9NZN5 other isoform, or with tags, fused parts or gaps): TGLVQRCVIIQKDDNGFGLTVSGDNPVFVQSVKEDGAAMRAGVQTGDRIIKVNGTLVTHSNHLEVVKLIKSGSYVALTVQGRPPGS
Chain of LDB3, O75112 (O75112 1-94): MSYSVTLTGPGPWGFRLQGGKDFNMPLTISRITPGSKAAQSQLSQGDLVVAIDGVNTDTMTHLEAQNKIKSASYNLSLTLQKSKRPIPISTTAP
Chain of MAST2, Q6P0Q8 (Q6P0Q8 1099-1202): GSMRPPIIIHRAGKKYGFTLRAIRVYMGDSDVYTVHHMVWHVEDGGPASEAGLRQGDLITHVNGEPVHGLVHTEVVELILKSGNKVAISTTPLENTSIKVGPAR
Chain of DLG4_3, P78352 (P78352 306-403): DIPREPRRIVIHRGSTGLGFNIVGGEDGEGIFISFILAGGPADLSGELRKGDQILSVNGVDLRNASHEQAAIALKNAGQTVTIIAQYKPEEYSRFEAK
Chain of GRIP2_6, Q9C0E4 (Q9C0E4 648-740): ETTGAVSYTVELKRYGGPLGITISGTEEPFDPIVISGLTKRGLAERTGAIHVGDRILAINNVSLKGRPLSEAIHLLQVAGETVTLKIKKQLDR
Chain of GRID2IP_1, A4D2P6 (A4D2P6 1-87): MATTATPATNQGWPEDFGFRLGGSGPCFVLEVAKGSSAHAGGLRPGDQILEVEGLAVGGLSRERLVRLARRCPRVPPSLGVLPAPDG
Chain of GRIP2_7, Q9C0E4 (Q9C0E4 934-1023): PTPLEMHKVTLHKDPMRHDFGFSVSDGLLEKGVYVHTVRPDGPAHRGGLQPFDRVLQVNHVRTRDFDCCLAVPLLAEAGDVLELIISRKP
Chain of SCRIB_2, Q14160 (Q14160 857-960): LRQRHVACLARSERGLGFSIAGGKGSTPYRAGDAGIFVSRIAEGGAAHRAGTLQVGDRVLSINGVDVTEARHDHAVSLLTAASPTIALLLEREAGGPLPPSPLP
Chain of SCRIB_1, Q14160 (Q14160 718-814): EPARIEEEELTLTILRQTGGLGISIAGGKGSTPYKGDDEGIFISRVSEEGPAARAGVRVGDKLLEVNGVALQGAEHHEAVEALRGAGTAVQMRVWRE
Chain of GRIP2_5, Q9C0E4 (Q9C0E4 544-642): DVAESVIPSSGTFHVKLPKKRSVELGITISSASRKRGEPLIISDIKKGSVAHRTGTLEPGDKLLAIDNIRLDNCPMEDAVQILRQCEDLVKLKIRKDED
Chain of DLG4_1, P78352 (P78352 62-152): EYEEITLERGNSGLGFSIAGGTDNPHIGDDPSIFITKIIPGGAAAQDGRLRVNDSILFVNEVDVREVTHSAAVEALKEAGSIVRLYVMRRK
Chain of SCRIB_3, Q14160 (Q14160 999-1103): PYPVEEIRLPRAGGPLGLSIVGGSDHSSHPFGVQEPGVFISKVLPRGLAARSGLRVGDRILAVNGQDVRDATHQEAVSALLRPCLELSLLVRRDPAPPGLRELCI

pKd (SNTB1, Q13884): 4.49
pKd (GRIP2_6, Q9C0E4): 3.58
pKd (GRID2IP_1, A4D2P6): below the threshold
pKd (SCRIB_2, Q14160): 4.58
pKd (LNX1_1, Q8TBB1): below the threshold
pKd (MAST2, Q6P0Q8): 5.09
pKd (MPP2, Q14168): below the threshold
pKd (GRIP1_7, Q9Y3R0): below the threshold
pKd (ARHGEF12, Q9NZN5-2): 3.97
pKd (MAGI2_2, Q86UL8): 4.67
pKd (SCRIB_3, Q14160): 4.78
pKd (MPP6, Q9NZW5): below the threshold
pKd (GIPC2, Q8TF65): 3.62
pKd (SNTA1, Q13424): 4.34
pKd (GRID2IP_2, A4D2P6): below the threshold
pKd (GRIP2_7, Q9C0E4): below the threshold
pKd (DLG4_3, P78352): 4.02
pKd (FRMPD1, Q5SYB0): 3.6
pKd (HTRA3, P83110): 3.96
pKd (TX1BP3, O14907): 3.89
pKd (GRIP2_5, Q9C0E4): below the threshold
pKd (TJP3_3, O95049): below the threshold
pKd (SCRIB_1, Q14160): 4.11
pKd (LDB3, O75112): below the threshold
pKd (DLG4_1, P78352): 4.4
pKd (PDZRN3_1, Q9UPQ7): 4.51
pKd (DFNB31_2, Q9P202): below the threshold
B1: FZD7, O75084 (peptide)
chain: SHSSKGETAV

pKd (SNTB1, Q13884): 4.14
pKd (GRIP2_6, Q9C0E4): below the threshold
pKd (GRID2IP_1, A4D2P6): below the threshold
pKd (SCRIB_2, Q14160): 3.95
pKd (LNX1_1, Q8TBB1): below the threshold
pKd (MAST2, Q6P0Q8): 5.13
pKd (MPP2, Q14168): below the threshold
pKd (GRIP1_7, Q9Y3R0): 3.72
pKd (ARHGEF12, Q9NZN5-2): 3.82
pKd (MAGI2_2, Q86UL8): 5.11
pKd (SCRIB_3, Q14160): 4.3
pKd (MPP6, Q9NZW5): below the threshold
pKd (GIPC2, Q8TF65): below the threshold
pKd (SNTA1, Q13424): 4.36
pKd (GRID2IP_2, A4D2P6): below the threshold
pKd (GRIP2_7, Q9C0E4): below the threshold
pKd (DLG4_3, P78352): 4.39
pKd (FRMPD1, Q5SYB0): below the threshold
pKd (HTRA3, P83110): below the threshold
pKd (TX1BP3, O14907): 3.72
pKd (GRIP2_5, Q9C0E4): below the threshold
pKd (TJP3_3, O95049): below the threshold
pKd (SCRIB_1, Q14160): 3.9
pKd (LDB3, O75112): below the threshold
pKd (DLG4_1, P78352): 5.04
pKd (PDZRN3_1, Q9UPQ7): 3.82
pKd (DFNB31_2, Q9P202): below the threshold
B2: RASSF6, Q6ZTQ3 (peptide)
chain: KLVIKTETTV

pKd (SNTB1, Q13884): below the threshold
pKd (GRIP2_6, Q9C0E4): below the threshold
pKd (GRID2IP_1, A4D2P6): below the threshold
pKd (SCRIB_2, Q14160): below the threshold
pKd (LNX1_1, Q8TBB1): below the threshold
pKd (MAST2, Q6P0Q8): below the threshold
pKd (MPP2, Q14168): below the threshold
pKd (GRIP1_7, Q9Y3R0): 3.63
pKd (ARHGEF12, Q9NZN5-2): below the threshold
pKd (MAGI2_2, Q86UL8): below the threshold
pKd (SCRIB_3, Q14160): 3.49
pKd (MPP6, Q9NZW5): below the threshold
pKd (GIPC2, Q8TF65): below the threshold
pKd (SNTA1, Q13424): below the threshold
pKd (GRID2IP_2, A4D2P6): below the threshold
pKd (GRIP2_7, Q9C0E4): below the threshold
pKd (DLG4_3, P78352): below the threshold
pKd (FRMPD1, Q5SYB0): below the threshold
pKd (HTRA3, P83110): below the threshold
pKd (TX1BP3, O14907): 3.61
pKd (GRIP2_5, Q9C0E4): below the threshold
pKd (TJP3_3, O95049): below the threshold
pKd (SCRIB_1, Q14160): below the threshold
pKd (LDB3, O75112): below the threshold
pKd (DLG4_1, P78352): below the threshold
pKd (PDZRN3_1, Q9UPQ7): below the threshold
pKd (DFNB31_2, Q9P202): below the threshold
B3: GPR6, P46095 (peptide)
chain: PFRSRSPSEV
